Measurements reported in patent publication US8163697B2, “Selective R-cadherin antagonists and methods” (The Scripps Research Institute, priority 2003, dated 2012).
Where a SMILES comes first, the peptide text is derived from it. Bridges are numbered along the chain shown (N, C = ends). Where no end group is shown, it is not given here.

Legend:
N-cadherin = target: T1, N-cadherin (Mus musculus, UniProt P15116); experiment: Aggregation assay, N-cadherin transfected L-cells; format: cell-based; conditions: N-cadherin expressing L-cells; for IC50: 2 hours incubation, 5 mM CaCl2, read-out: IC50, inhibition of N-cadherin mediated aggregation
T1 construct: expressed in transfected cells
T1 sequence (P15116 160-906): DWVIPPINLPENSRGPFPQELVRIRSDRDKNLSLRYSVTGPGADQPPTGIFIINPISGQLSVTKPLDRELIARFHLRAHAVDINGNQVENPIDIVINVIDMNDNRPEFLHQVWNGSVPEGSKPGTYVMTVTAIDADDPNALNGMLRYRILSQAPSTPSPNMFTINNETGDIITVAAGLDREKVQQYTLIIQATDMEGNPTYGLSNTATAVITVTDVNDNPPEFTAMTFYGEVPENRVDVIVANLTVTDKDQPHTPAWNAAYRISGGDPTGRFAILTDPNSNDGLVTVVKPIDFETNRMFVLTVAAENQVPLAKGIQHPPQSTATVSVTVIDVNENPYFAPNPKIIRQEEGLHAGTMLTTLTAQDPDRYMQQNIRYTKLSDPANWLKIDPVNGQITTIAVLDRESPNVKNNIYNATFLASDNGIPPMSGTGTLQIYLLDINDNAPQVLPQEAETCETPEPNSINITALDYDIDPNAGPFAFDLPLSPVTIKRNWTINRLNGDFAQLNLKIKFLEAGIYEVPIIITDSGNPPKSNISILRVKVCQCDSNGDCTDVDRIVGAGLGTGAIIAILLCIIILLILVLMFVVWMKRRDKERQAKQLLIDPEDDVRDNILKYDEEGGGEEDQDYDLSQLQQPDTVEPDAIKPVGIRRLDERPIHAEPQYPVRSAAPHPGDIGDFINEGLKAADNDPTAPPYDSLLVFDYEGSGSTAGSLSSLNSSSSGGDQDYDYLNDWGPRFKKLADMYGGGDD
Description: (§1) Mouse R-cadherin and N-cadherin plasmids were generous gifts from Dr. Masatoshi Takeichi (Kyoto University, Japan). The plasmids were sub-cloned into pDsRed2 N1 vectors (Clontech) to encode for fusion proteins with Red Fluorescent Protein (RFP) attached to the C-terminal end of the cadherin molecules. L-cells (mouse fibroblast L929 cells, ATCC #CRL-2148) were stably transfected with either R or N-cadherin pDsRed2 N1 using the Calcium Phosphate Transfection System (Life Technologies) according to the manufacturer's protocol. After screening by growth in media supplemented with Geneticin (700 μg/mL G418 Geneticin, Gibco BRL), positive clones were selected. Cells were examined for expression of RFP, and were tested for cadherin expression by immunoblotting and immunofluorescence staining. FIG. 6 illustrates the aggregation of L-cells expressing R and N-cadherins.
(§2) L-Cells were grown to near confluency followed by trypsinization with 0.01% trypsin+5 mM CaCl2 and no EDTA (TC) or 0.01% trypsin with 0.1 mM EDTA and no calcium (TE). The cells were collected and washed, followed by resuspension in Hanks buffer solution (HBSS)+1% BSA with (TC) or without (TE) 5 mM CaCl2. Cells were incubated at 37° C. in 0.5 mL solution at 2×10^5 cells per well of a 24 well plate with rocking at about 60-70 rpm with varying peptide concentrations. All assays were performed in triplicate. The extent of cellular aggregation was represented by the ratio of the total particle number after 2 hours of incubation (N2hr) to the initial particle number (N0). Particles were counted on a hemocytometer using the sum of 8 separate 20 μL counts/well, before (N0) and after (Nt) incubation. The results are illustrated in FIG. 8.
Mouse fibroblast cells (lineage L929), commonly referred to as L-cells, were chosen because they are known to contain no endogenous cadherin expression. R-cadherin stable transfectants were created and used to test the effects of the designed peptides on R-cadherin mediated aggregation. N-cadherin stable transfectants were also created and used to evaluate the peptides for cadherin selectivity, based on their effects on N-cadherin mediated aggregation. Immunoblot analysis detected high levels of R-cadherin and no N-cadherin expression in R-cadherin clone 8 (R-cad8), while high levels of N-cadherin expression and no R-cadherin expression was found in N-cadherin clone 3 (N-cad3), as shown in FIG. 7. Immunofluorescence confirmed the expression of the appropriate cadherin in these chosen clones. When tested in the aggregation assay, the morphology of the transfected cell lines was altered as a result of cadherin transfection. […]

R-cadherin = target: T2, R-cadherin (Mus musculus, UniProt P39038); experiment: Aggregation assay, R-cadherin transfected L-cells; format: cell-based; conditions: R-cadherin expressing L-cells
T2 construct: expressed in transfected cells
T2 sequence (P39038 167-913): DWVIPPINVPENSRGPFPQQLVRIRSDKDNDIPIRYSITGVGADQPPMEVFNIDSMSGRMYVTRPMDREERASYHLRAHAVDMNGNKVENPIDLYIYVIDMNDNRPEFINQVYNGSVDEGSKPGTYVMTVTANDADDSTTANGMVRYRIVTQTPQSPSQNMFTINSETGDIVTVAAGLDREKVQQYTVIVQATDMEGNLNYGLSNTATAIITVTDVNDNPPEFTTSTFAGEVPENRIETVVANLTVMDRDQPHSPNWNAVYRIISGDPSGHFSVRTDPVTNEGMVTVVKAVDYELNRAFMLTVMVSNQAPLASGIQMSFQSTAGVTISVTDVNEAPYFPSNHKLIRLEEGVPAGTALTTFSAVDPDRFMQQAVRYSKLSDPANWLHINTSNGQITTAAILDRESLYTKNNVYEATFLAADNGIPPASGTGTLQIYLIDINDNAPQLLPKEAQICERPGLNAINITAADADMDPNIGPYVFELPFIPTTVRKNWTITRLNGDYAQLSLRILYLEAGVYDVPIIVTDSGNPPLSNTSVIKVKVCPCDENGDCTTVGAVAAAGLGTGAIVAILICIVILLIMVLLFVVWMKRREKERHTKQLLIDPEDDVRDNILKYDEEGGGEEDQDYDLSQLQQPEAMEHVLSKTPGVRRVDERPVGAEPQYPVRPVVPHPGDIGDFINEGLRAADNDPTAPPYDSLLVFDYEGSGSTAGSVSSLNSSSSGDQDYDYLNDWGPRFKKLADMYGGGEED
Description: as §1
as §2, with “The results are illustrated in FIG. 8.” left out
Mouse fibroblast cells (lineage L929), commonly referred to as L-cells, were chosen because they are known to contain no endogenous cadherin expression. […] Immunoblot analysis detected high levels of R-cadherin and no N-cadherin expression in R-cadherin clone 8 (R-cad8), while high levels of N-cadherin expression and no R-cadherin expression was found in N-cadherin clone 3 (N-cad3), as shown in FIG. 7. […]

| Compound | effect on N-cadherin mediated aggregation (N-cadherin) | effect on R-cadherin mediated aggregation (R-cadherin) | IC50 (N-cadherin) [µM] | IC50 (R-cadherin; 2 hours incubation, 5 mM CaCl2, read-out: IC50, inhibition of R-cadherin mediated aggregation) [µM] |
| --- | --- | --- | --- | --- |
| cyclic CSDIC (disulfide 1-5; also: peptides said to be amide-blocked at N-terminus and acetylated at C-terminus (as worded)) [cyclic SDI, control cyclic peptide CSDIC] | little effect | little effect | – | – |
| CC[C@H](C)[C@@H]1NC(=O)[C@@H](NC(C)=O)CSSC[C@@H](C(N)=O)NC(=O)[C@@H]2CCCN2C(=O)[C@H](CC(N)=O)NC1=O [cyclic INP, cyclic CINPC] (Ac-CINPC-NH2; disulfide 1-5) | – | – | < 300 | – |
| CC(=O)N[C@H]1CSSC[C@@H](C(N)=O)NC(=O)[C@H](C(C)C)NC(=O)[C@H](C)NC(=O)[C@H](Cc2c[nH]cn2)NC1=O [cyclic HAV, CHAVC] | – | – | 150 to 200 | 150 to 200 |
| cyclic CRADC (disulfide 1-5; also: peptides said to be amide-blocked at N-terminus and acetylated at C-terminus (as worded)) [cyclic RAD, control cyclic peptide CRADC] | little effect | little effect | – | – |
